B5: His-ECTO (His-tagged ENG ectodomain) of the purified His-ECTO-BMP9 complex (receptor, human, UniProt P17813 26-586, looked up)
chain: ETVHCDLQPVGPERGEVTYTTSQVSKGCVAQAPNAILEVHVLFLEFPTGPSQLELTLQASKQNGTWPREVLLVLSVNSSVFLHLQALGIPLHLAYNSSLVTFQEPPGVNTTELPSFPKTQILEWAAERGPITSAAELNDPQSILLRLGQAQGSLSFCMLEASQDMGRTLEWRPRTPALVRGCHLEGVAGHKEAHILRVLPGHSAGPRTVTVKVELSCAPGDLDAVLILQGPPYVSWLIDANHNMQIWTTGEYSFKIFPEKNIRGFKLPDTPQGLLGEARMLNASIVASFVELPLASIVSLHASSCGGRLQTSPAPIQTTPPKDTCSPELLMSLIQTKCADDAMTLVLKKELVAHLKCTITGLTFWDPSCEAEDRGDKFVLRSAYSSCGMQVSASMISNEAVVNILSSSSPQRKKVHCLNMDSLSFQLGLYLSPHFLQASNTIEPGQQSFVQVRVSPSVSEFLLQLDSCHLDLGPEGGTVELIQGRAAKGNCVSLLSPSPEGDPRFSFLLHFYTVPIPKTGTLSCTVALRPKTGSQDQEVHRTVFMRLNIISPDLSGCTSKG

Data set [1] concerns the molecule itself. The experiment in a line: non-reducing SDS-PAGE and immunoblot.
The target in data set [2] is B5. The experiment in a line: SEC-MALS. For orientation: Size exclusion chromatography separates by hydrodynamic size, large species first.
Data set [3] addresses T1, BMP9 as used in biolayer interferometry (human) (UniProt Q9UK05).
T1 sequence (Q9UK05 320-429, looked up): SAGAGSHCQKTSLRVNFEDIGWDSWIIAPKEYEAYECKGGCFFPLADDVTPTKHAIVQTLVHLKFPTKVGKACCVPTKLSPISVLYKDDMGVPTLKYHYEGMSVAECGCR
The experiment in a line: BLI. (In general: BLI is a label-free optical method that tracks binding on a fibre tip over time.)

The data set “SEC-MALS” deals with the molecule itself. The experiment in a line: SEC-MALS.

These results are taken from PMC5464963 (Cell Reports, 2017).

The term Kd denotes the equilibrium constant for the complex coming apart. The low end stands for a tighter complex, the high end for a looser complex. Usually koff stands for the first-order rate constant of dissociation. Low values mean slow dissociation, high ones fast dissociation. The term kon denotes a measure of how fast the partners come together.

B1: ^MZP (mMBP-fused ENG P338-G581, zona pellucida module) (domain or fragment, human, UniProt P17813 338-581, looked up)
chain: PAPIQTTPPKDTCSPELLMSLIQTKCADDAMTLVLKKELVAHLKCTITGLTFWDPSCEAEDRGDKFVLRSAYSSCGMQVSASMISNEAVVNILSSSSPQRKKVHCLNMDSLSFQLGLYLSPHFLQASNTIEPGQQSFVQVRVSPSVSEFLLQLDSCHLDLGPEGGTVELIQGRAAKGNCVSLLSPSPEGDPRFSFLLHFYTVPIPKTGTLSCTVALRPKTGSQDQEVHRTVFMRLNIISPDLSG
As for B1, the “stoichiometry N” value in data set [1] amounted to 2.

B2: bone morphogenetic protein 9 (BMP9), mature homodimer, untagged, expressed in HEK293 cells (ligand, human, UniProt Q9UK05 320-429, looked up)
chain: SAGAGSHCQKTSLRVNFEDIGWDSWIIAPKEYEAYECKGGCFFPLADDVTPTKHAIVQTLVHLKFPTKVGKACCVPTKLSPISVLYKDDMGVPTLKYHYEGMSVAECGCR
Turning to B2, in data set [2], the “stoichiometry N” value was 1 2:2 (ENG chains : BMP9 chains).

B3: full-length ectodomain of ENG (ECTO) as used in biolayer interferometry (receptor)
chain: ETVHCDLQPVGPERGEVTYTTSQVSKGCVAQAPNAILEVHVLFLEFPTGPSQLELTLQASKQNGTWPREVLLVLSVNSSVFLHLQALGIPLHLAYNSSLVTFQEPPGVNTTELPSFPKTQILEWAAERGPITSAAELNDPQSILLRLGQAQGSLSFCMLEASQDMGRTLEWRPRTPALVRGCHLEGVAGHKEAHILRVLPGHSAGPRTVTVKVELSCAPGDLDAVLILQGPPYVSWLIDANHNMQIWTTGEYSFKIFPEKNIRGFKLPDTPQGLLGEARMLNASIVASFVELPLASIVSLHASSCGGRLQTSPAPIQTTPPKDTCSPELLMSLIQTKCADDAMTLVLKKELVAHLKCTITGLTFWDPSCEAEDRGDKFVLRSAYSSCGMQVSASMISNEAVVNILSSSSPQRKKVHCLNMDSLSFQLGLYLSPHFLQASNTIEPGQQSFVQVRVSPSVSEFLLQLDSCHLDLGPEGGTVELIQGRAAKGNCVSLLSPSPEGDPRFSFLLHFYTVPIPKTGTLSCTVALRPKTGSQDQEVHRTVFMRLNIISPDLSGCTSKG
In data set [3], B3 returned a Kd of 0.00981 µM, a koff of 0.00198 s⁻¹ and a kon of 200000 M⁻¹ s⁻¹.

B4: His-^MECTO (His-tagged, mMBP-fused ENG ectodomain) (receptor, human, UniProt P17813 26-586, looked up)
chain: ETVHCDLQPVGPERGEVTYTTSQVSKGCVAQAPNAILEVHVLFLEFPTGPSQLELTLQASKQNGTWPREVLLVLSVNSSVFLHLQALGIPLHLAYNSSLVTFQEPPGVNTTELPSFPKTQILEWAAERGPITSAAELNDPQSILLRLGQAQGSLSFCMLEASQDMGRTLEWRPRTPALVRGCHLEGVAGHKEAHILRVLPGHSAGPRTVTVKVELSCAPGDLDAVLILQGPPYVSWLIDANHNMQIWTTGEYSFKIFPEKNIRGFKLPDTPQGLLGEARMLNASIVASFVELPLASIVSLHASSCGGRLQTSPAPIQTTPPKDTCSPELLMSLIQTKCADDAMTLVLKKELVAHLKCTITGLTFWDPSCEAEDRGDKFVLRSAYSSCGMQVSASMISNEAVVNILSSSSPQRKKVHCLNMDSLSFQLGLYLSPHFLQASNTIEPGQQSFVQVRVSPSVSEFLLQLDSCHLDLGPEGGTVELIQGRAAKGNCVSLLSPSPEGDPRFSFLLHFYTVPIPKTGTLSCTVALRPKTGSQDQEVHRTVFMRLNIISPDLSGCTSKG
With B4, the “stoichiometry N” value in data set [1] stood at 2.

Regarding B5, the “stoichiometry N” value in the data set “SEC-MALS” was 2.

B6: ECTO-Myc (Myc-tagged ENG ectodomain) (receptor, human, UniProt P17813 26-586, looked up)
chain: ETVHCDLQPVGPERGEVTYTTSQVSKGCVAQAPNAILEVHVLFLEFPTGPSQLELTLQASKQNGTWPREVLLVLSVNSSVFLHLQALGIPLHLAYNSSLVTFQEPPGVNTTELPSFPKTQILEWAAERGPITSAAELNDPQSILLRLGQAQGSLSFCMLEASQDMGRTLEWRPRTPALVRGCHLEGVAGHKEAHILRVLPGHSAGPRTVTVKVELSCAPGDLDAVLILQGPPYVSWLIDANHNMQIWTTGEYSFKIFPEKNIRGFKLPDTPQGLLGEARMLNASIVASFVELPLASIVSLHASSCGGRLQTSPAPIQTTPPKDTCSPELLMSLIQTKCADDAMTLVLKKELVAHLKCTITGLTFWDPSCEAEDRGDKFVLRSAYSSCGMQVSASMISNEAVVNILSSSSPQRKKVHCLNMDSLSFQLGLYLSPHFLQASNTIEPGQQSFVQVRVSPSVSEFLLQLDSCHLDLGPEGGTVELIQGRAAKGNCVSLLSPSPEGDPRFSFLLHFYTVPIPKTGTLSCTVALRPKTGSQDQEVHRTVFMRLNIISPDLSGCTSKG
On to B6, for which the “stoichiometry N” value in data set [1] worked out at 2.

B7: unfused (non-mMBP fused) wild-type OR, ENG E26-S337 (domain or fragment)
chain: ETVHCDLQPVGPERGEVTYTTSQVSKGCVAQAPNAILEVHVLFLEFPTGPSQLELTLQASKQNGTWPREVLLVLSVNSSVFLHLQALGIPLHLAYNSSLVTFQEPPGVNTTELPSFPKTQILEWAAERGPITSAAELNDPQSILLRLGQAQGSLSFCMLEASQDMGRTLEWRPRTPALVRGCHLEGVAGHKEAHILRVLPGHSAGPRTVTVKVELSCAPGDLDAVLILQGPPYVSWLIDANHNMQIWTTGEYSFKIFPEKNIRGFKLPDTPQGLLGEARMLNASIVASFVELPLASIVSLHASSCGGRLQTS
On to B7, for which, in data set [3], the dissociation constant Kd worked out at 0.295 µM, the dissociation rate constant (koff) is 0.0871 s⁻¹ and the kon was 295000 M⁻¹ s⁻¹.

B8: ^MOR as used in biolayer interferometry (domain or fragment)
chain: ETVHCDLQPVGPERGEVTYTTSQVSKGCVAQAPNAILEVHVLFLEFPTGPSQLELTLQASKQNGTWPREVLLVLSVNSSVFLHLQALGIPLHLAYNSSLVTFQEPPGVNTTELPSFPKTQILEWAAERGPITSAAELNDPQSILLRLGQAQGSLSFCMLEASQDMGRTLEWRPRTPALVRGCHLEGVAGHKEAHILRVLPGHSAGPRTVTVKVELSCAPGDLDAVLILQGPPYVSWLIDANHNMQIWTTGEYSFKIFPEKNIRGFKLPDTPQGLLGEARMLNASIVASFVELPLASIVSLHASSCGGRLQTS
In data set [3], B8 displayed a Kd of 0.179 µM, a koff of 0.0622 s⁻¹ and a kon of 349000 M⁻¹ s⁻¹.
